Reference: patent publication US20210380703A1
Where a chain is given by its changes, count along the chain named.

B1: 368_G07 (antibody, V domains shown)
VH: EVQLLESGGGLVQPGGSLRLSCAASGFTFSSYSMHWVRQAPGKGLEWVSSINYNGGYTSYADSVKGRFTISRDNSKNTLYLQMNSLRAEDTAVYYCARSATWHDTHLDYWGQGTLVTVSS
VL: DIQMTQSPSSLSASVGDRVTITCRASQSIVSYVNWYQQKPGKAPKLVIYAATSRASGVPSRFSGSGSGTDFTLTISSLQPEDFATYYCQQSYDTPLTFGGGTKVEIK
B2: 371_F07 (antibody, V domains shown)
VH: B1 VH with S33G, S49A, S50G, S99A
VL: B1 VL with V30L, S31T, V33L, V47L, R54L, Y92D, D93S, T94N
B3: 369_E03 (antibody, V domains shown)
VH: B1 VH with S33G, S49A, S50G, S99A
VL: B1 VL with V30L, V47L, R54L, D93E, T94N
B4: 368_D06 (antibody, V domains shown)
VH: B1 VH with S33G, H35N, S50N, S59G, S99A
VL: B1 VL with V30L, A55H, D93E, T94N
B5: 373_G06 (antibody, V domains shown)
VH: B1 VH with S33G, S49A, G55S, S59G, S99A
VL: B1 VL with V30L, V47L, R54L, D93N, T94L
B6: 369_B07 (antibody, V domains shown)
VH: B1 VH with S30D, S33G, S49A, S50N, T58K, S99A
VL: B1 VL with R54L, T94L
B7: 370_E12 (antibody, V domains shown)
VH: B1 VH with S30D, S33G, S49A, S50G, S99A
VL: B1 VL with V30L, V47L, D93E, T94N
B8: 373_D11 (antibody, V domains shown)
VH: B1 VH with S33G, S49A, S50G, S99A
VL: B1 VL with V30L, S31T, V47L, T94N
B9: 374_B01 (antibody, V domains shown)
VH: B1 VH with S30D, S33G, S49A, S50G, G55S, S99A
VL: B1 VL with V30L, V33L, V47L, T52S, R54L, A55Q, T94S
B10: 374_E06 (antibody, V domains shown)
VH: B1 VH with S30D, H35N, G55S, T58K, S59G
VL: B1 VL with V30L, V33L, V47L, T94L
B11: 368_E08 (antibody, V domains shown)
VH: B1 VH with S30D, S33G, S49A, S50N, G55S, S59G, S99A
VL: B1 VL with V30L, R54L, A55H, D93E
B12: 367_H08 (antibody, V domains shown)
VH: B1 VH with S30D, S33G, H35N, S99A
VL: B1 VL with V30L, S31T, V47L, A55H, D93N, T94L
B13: 370_A10 (antibody, V domains shown)
VH: B1 VH with S31D, H35N, G55S, T58K, S59G
VL: B1 VL with V30L, V47L, R54L
B14: 372_D07 (antibody, V domains shown)
VH: B1 VH with S33G, H35N, S49A, S50G, S99A
VL: B1 VL with V30L, V33L, V47L, D93E, T94S
B15: 374_A12 (antibody, V domains shown)
VH: B1 VH with S30D, S33G, S99A
VL: B1 VL with V30L, S31T, V33L, V47L, Y92D, D93S, T94N
B16: 369_C06 (antibody, V domains shown)
VH: B1 VH with T58K, S99A
VL: B1 VL with V30L, V47L, T94S
B17: 368_H10 (antibody, V domains shown)
VH: B1 VH with H35N, G55S, T58K, S59G
VL: B1 VL with A51V, R54L, D93E
B18: 369_B08 (antibody, V domains shown)
VH: B1 VH with S30D, S33G, S99A
VL: B1 VL with V30L, V47L, D93E, T94S
B19: 365_G07 (antibody, V domains shown)
VH: B1 VH with S30D, S33G, S99A, T101N, H106A
VL: B1 VL with V33L, V47L, T94N
B20: 375_D02 (antibody, V domains shown)
VH: B1 VH with H35N, S50N, S99A
VL: B1 VL with V30L, S31T, V33L, V47L, T52S, R54L, A55Q, D93E, T94L
B21: 374_B07 (antibody, V domains shown)
VH: B1 VH with S33G, T58K, S99A
VL: B1 VL with V30I, V33L, V47L, R54L, D93E, T94S
B22: 368_C12 (antibody, V domains shown)
VH: B1 VH with S30D, S33G, S49A, S99A
VL: B1 VL with V30L, S31T, V33L, V47L, Y92D, D93S, T94N
B23: 373_B01 (antibody, V domains shown)
VH: B1 VH with S30D, S33G, S50G, T58K, S99A
VL: B1 VL with V30L, T94L
B24: 369_C09 (antibody, V domains shown)
VH: B1 VH with S33G, S59G, S99A
VL: B1 VL with V33L, A55H, T94L
B25: 371_A05 (antibody, V domains shown)
VH: B1 VH with S33G, S50N, T58K, S99A
VL: B1 VL with V30L, S31T, V33L, V47L, Y92D, D93N, T94L
B26: 370_B06 (antibody, V domains shown)
VH: B1 VH with S33G, S49A, S50G, S99A
VL: B1 VL with D93E
B27: 368_C07 (antibody, V domains shown)
VH: B1 VH with S33G, S49A, S50G, G55S, S99A
VL: B1 VL with D93E, T94N
B28: 375_H04 (antibody, V domains shown)
VH: B1 VH with S33G, S49A, S50G, G55S, S59G, S99A
VL: B1 VL with V30L, V33L, D93S, T94N
B29: 374_A10 (antibody, V domains shown)
VH: B1 VH with S33G, S50G, S99A
VL: B1 VL with V30L, V47L
B30: 369_A12 (antibody, V domains shown)
VH: B1 VH with S49A, G55S, S59G, S99A
VL: B1 VL with V30L, S31T, V33L, V47L, A55H, T94L
B31: 369_A04 (antibody, V domains shown)
VH: B1 VH with S30D, S33G, S49A, T58K, S99A
VL: B1 VL with R54L, T94L
B32: 369_C11 (antibody, V domains shown)
VH: B1 VH with S31D, S33G, S49A, S50G, S59G, S99A
VL: B1 VL with V30L, V33L
B33: 368_G08 (antibody, V domains shown)
VH: B1 VH with S30D, S31D, S33G, H35N, G55S, T58K
VL: B1 VL with V47L, A55H, D93N, T94N
B34: 370_A08 (antibody, V domains shown)
VH: B1 VH with S30D, H35N, G55S, S59G
VL: B1 VL with S31T, V33L, T94L
B35: 368_B12 (antibody, V domains shown)
VH: B1 VH with S30D, S33G, S50G, G55S, S99A
VL: B1 VL with V47L, T94L
B36: 375_F01 (antibody, V domains shown)
VH: B1 VH with H35N, G55S, S59G
VL: B1 VL with V33L, T94N
B37: 371_D05 (antibody, V domains shown)
VH: B1 VH with S30D, S31D, S33G, S50G, S99A
VL: B1 VL with V30L, S31T, V33L, V47L, T52S, R54L, A55Q, T94S
B38: 371_C02 (antibody, V domains shown)
VH: B1 VH with S30D, S33G, S49A, S50G, G55S, S59G, S99A
VL: B1 VL with V30L, S31T, V47L, T52S, R54L, A55Q
B39: 371_B02 (antibody, V domains shown)
VH: B1 VH with S30D, S33G, H35N, S50N, S99A
VL: B1 VL with V30L, S31T, R54L, D93N, T94N
B40: 368_B04 (antibody, V domains shown)
VH: B1 VH with S30D, S33G, S99A
VL: B1 VL with V33L, D93E, T94N
B41: 368_G11 (antibody, V domains shown)
VH: B1 VH with S30D, S33G, S50G, G55S, T58K, S99A, H106A
VL: B1 VL with V30L, S31T, V33L, V47L, Y92D, D93N
B42: 375_C03 (antibody, V domains shown)
VH: B1 VH with S30D, S50G, S99A
VL: B1 VL with V30L, D93E, T94S
B43: 370_H05 (antibody, V domains shown)
VH: B1 VH with S33G, S50N, S99A
VL: B1 VL with V30L, V33L, V47L, T52S, R54L, A55Q, Y92D, D93S, T94L
B44: 376_D08 (antibody, V domains shown)
VH: B1 VH with S30D, S33G, H35N, S49A, S50N, G55S, T58K, S99A, H106A
VL: B1 VL with V30L, S31T, V33L, A50Y, T52N, S53N, A55P, D93S, T94N
B45: 367_H04 (antibody, V domains shown)
VH: B1 VH with H35N
VL: B1 VL with V30L, S31T, V47L, A55H, Y92D, D93N, T94N
B46: 366_A02 (antibody, V domains shown)
VH: B1 VH with S30D, S33G, H35N, S49A, G55S, T58K, S59G, S99A, T101N
VL: B1 VL with V47L, T94L
B47: 371_B11 (antibody, V domains shown)
VH: B1 VH with S49A, G55S, S99A
VL: B1 VL with V30L, S31T, V33L, V47L, D93E, T94L
B48: 368_H03 (antibody, V domains shown)
VH: B1 VH with S30D, S31D, S49A, S59G, S99A
VL: B1 VL with V30L, A51V, A55H, D93S, T94N

These binders were tested against human Fc (human) (assay: ELISA, negative control).

optical density	Binder
0.29 OD	B1
0.425 OD	B2
0.63 OD	B3
0.265 OD	B4
0.196 OD	B5
0.319 OD	B6
0.656 OD	B7
0.364 OD	B8
0.173 OD	B9
0.191 OD	B10
0.255 OD	B11
0.312 OD	B12
0.434 OD	B13
0.472 OD	B14
0.308 OD	B15
0.414 OD	B16
0.281 OD	B17
0.309 OD	B18
0.331 OD	B19
0.191 OD	B20
0.25 OD	B21
0.346 OD	B22
0.197 OD	B23
0.32 OD	B24

optical density	Binder
0.369 OD	B25
0.441 OD	B26
0.282 OD	B27
0.181 OD	B28
0.23 OD	B29
0.461 OD	B30
0.353 OD	B31
0.378 OD	B32
0.329 OD	B33
0.319 OD	B34
0.567 OD	B35
0.166 OD	B36
0.339 OD	B37
0.372 OD	B38
0.449 OD	B39
0.304 OD	B40
0.306 OD	B41
0.217 OD	B42
0.364 OD	B43
0.232 OD	B44
0.289 OD	B45
0.336 OD	B46
0.549 OD	B47
0.343 OD	B48
